From patent US20060246471A1 (published 2006)

B1: MLXBIR3SG (ML-IAP chimera: ML-IAP framework with XIAP-BIR3 residues 336-348 in place of 160-179, and S150G) (other)
chain: MGSSHHHHHHSSGLVPRGSHMLETEEEEEEGAGATLSRGPAFPGMGSEELRLASFYDWPLTAEVPPELLAAAGFFHTGHQDKVRCFFCYGGLQSWKRGDDPWTEHAKWFPGCQFLLRSKGQEYINNIHLTHSL
notes: also called ML-IAP-BIR/XIAP-BIR3 chimera protein; His6-tagged MLXBIR3SG
B2: full-length ML-IAP plus a N-terminal His6-tag (protein, human, UniProt Q96CA5 1-298, looked up, not shown: small tags and cut ends)
chain: MGPKDSAKCLHRGPQPSHWAAGDGPTQERCGPRSLGSPVLGLDTCRAWDHVDGQILGQLRPLTEEEEEEGAGATLSRGPAFPGMGSEELRLASFYDWPLTAEVPPELLAAAGFFHTGHQDKVRCFFCYGGLQSWKRGDDPWTEHAKWFPSCQFLLRSKGRDFVHSVQETHSQLLGSWDPWEEPEDAAPVAPSVPASGYPELPTPRREVQSESAQEPGGVSPAEAQRAWWVLEPPGARDVEAQLRRLQEERTCKVCLDRAVSIVFVPCGHLVCAECAPGLQLCPICRAPVRSRVRTFLS
B3: wild-type mature Smac protein (amino acids 56-239 of Smac/DIABLO, C-terminal His6 fusion) (other, human, UniProt Q9NR28 56-239, looked up)
chain: AVPIAQKSEPHSLSSEALMRRAVSLVTDSTSTFLSQTTYALIEAITEYTKAVYTLTSLYRQYTSLLGKMNSEEEDEVWQVIIGARAEMTSKHQEYLKLETTWMTAVGLSEMAAEAAYQTGADQASITARNHIQLVKLQVEEVHQLSRKAETKLAEAQIEELRQKTQEEGEERAESEQEAYLRED
notes: range 56-239; not shown: C-terminal His6 fusion from pet21b+

Tests used:
[1] = target: T1, 5-carboxyflourescein-conjugated AVPFAK(5-FAM)K (Hid-FAM) (5-carboxyfluorescein (5-FAM) on Lys 6); experiment: fluorescence polarization, BIR protein titrated onto 5 nM Hid-FAM
T1 construct: also called HID-FAM probe; Hid-based 5-carboxyfluorescein-labeled peptide
Description: Polarization experiments were performed on an Analyst™ HT 96-384 (Molecular Devices Corp.). […] The reactions were read after an incubation time of 10 minutes at room temperature with standard cut-off filters for the fluorescein fluorophore (λₑₓ=485 nm; λₑₘ=530 nm) in 96-well black HE96 plates (Molecular Devices Corp.). Fluorescence polarization values were plotted as a function of the protein concentration, and the EC₅₀ values were obtained by fitting the data to a 4-parameter equation using Kaleidagraph™ software (Synergy software, Reading, Pa.). The apparent Kd values were determined from the EC₅₀ values.

[2] = target: ΔCARD human caspase 9 (lacking the first 138 residues) with Ala substitutions at residues 304 to 306 (human) (UniProt P55211); experiment: caspase-9 enzyme inhibition (Ac-LEHD-AFC hydrolysis), Ki(app); too low to measure accurately
Sequence of ΔCARD human caspase 9 (lacking the first 138 residues) with Ala substitutions at residues 304 to 306 (human) (P55211 139-416, stated change not applied): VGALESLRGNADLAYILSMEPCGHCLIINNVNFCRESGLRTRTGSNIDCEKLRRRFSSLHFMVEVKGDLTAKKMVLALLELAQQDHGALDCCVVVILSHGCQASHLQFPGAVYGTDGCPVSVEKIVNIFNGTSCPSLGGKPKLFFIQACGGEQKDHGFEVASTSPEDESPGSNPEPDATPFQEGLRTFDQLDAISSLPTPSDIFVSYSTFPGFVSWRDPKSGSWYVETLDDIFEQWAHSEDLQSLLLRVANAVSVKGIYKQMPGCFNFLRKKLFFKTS

[3] = target: ΔCARD human caspase 9 (lacking the first 138 residues) with Ala substitutions at residues 304 to 306 (human) (UniProt P55211); experiment: caspase-9 enzyme inhibition
[4] = target: B1; experiment: fluorescence polarization competition against Hid-FAM probe
Description: (§1) Samples were read after a 10-minute incubation. Fluorescence polarization values were plotted as a function of the antagonist concentration, and the IC₅₀ values were obtained by fitting the data to a 4-parameter equation using Kaleidagraph™ software (Synergy software, Reading, Pa.). Inhibition constants (Kᵢ) for the antagonists were determined from the IC₅₀ values (Keating et al., (2000) Putting the pieces together: contribution of fluorescence polarization assays to small-molecule lead optimization. Proceedings of SPIE: In-Vitro Diagnostic Instrumentation.).

[5] = target: T2, ML-IAP-BIR (amino acids 63-179 of accession number BIR7_HUMAN), bacterially expressed from pET15b (human, UniProt Q96CA5 63-179); experiment: as above
T2 construct: range 63-179; Purified protein used in the fluorescence polarization assays; also called MLBIR; wild-type ML-IAP-BIR; not shown: N-terminal His6-tag from the pET15b vector
T2 sequence (looked up): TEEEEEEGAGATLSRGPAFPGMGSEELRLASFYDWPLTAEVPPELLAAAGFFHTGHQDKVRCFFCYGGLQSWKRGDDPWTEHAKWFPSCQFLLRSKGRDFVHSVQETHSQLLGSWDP
Description: as §1

[6] = target: T3, MLBIR-Q (C-terminally truncated version of ML-IAP-BIR with the same number of amino acids as MLXBIR3 and … (human, UniProt Q96CA5 63-172)); experiment: as above
T3 construct: range 63-172; also called C-terminal truncated wild type; not shown: N-terminal His6-tag from the pET15b vector
T3 sequence (looked up): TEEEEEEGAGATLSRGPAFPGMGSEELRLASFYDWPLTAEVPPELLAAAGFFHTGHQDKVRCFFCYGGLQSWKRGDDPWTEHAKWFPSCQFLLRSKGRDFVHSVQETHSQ
Description: as §1

[7] = target: T4, XIAP-BIR3 (third BIR of XIAP, residues 252-348) (human, UniProt P98170 252-348); experiment: as above
T4 construct: range 252-348; No tags are stated; also called XIAP-BIR3 protein
T4 sequence (P98170 252-348 limits assumed): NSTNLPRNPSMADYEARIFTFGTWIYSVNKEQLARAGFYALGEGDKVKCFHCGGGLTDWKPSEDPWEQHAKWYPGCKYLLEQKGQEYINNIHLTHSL
Description: as §1

[8] = target: B1; experiment: TR-FRET competition against biotinylated Smac peptide AVPIAQK-biotin on His6-tagged MLXBIR3SG
Description: Time-Resolved Fluorescence Resonance Energy Transfer (TR-FRET) competition experiments (Kolb et al., (1996) J. Biomol. Screening 1 (4): 203-210) were performed on the Wallac Victor2 Multilabeled Counter Reader™ (Perkin Elmer Life and Analytical Sciences, Inc.). […] Alternatively, this cocktail can be made using optimized concentrations of europium-labeled anti-His₆ antibody (Perkin Elmer) instead of the anti-His₆ antibody-allophycocyanin conjugate, and streptavidin-allophycocyanin conjugate (Perkin Elmer) instead of europium-labeled streptavidin. The reagent cocktail was incubated at room temperature for 30 minutes. […] After a 90 minute incubation at room temperature, the fluorescence was read with filters for the excitation of europium (340 nm) and for the emission wavelengths of europium (615 nm) and allophycocyanin (665 nm). Data are calculated as a ratio of the emission signal of allophycocyanin at 665 nm to the emission signal of europium at 615 nm (these ratios are multiplied by a factor of 10,000 for ease of data manipulation). The resulting values were plotted as a function of antagonist concentration and fit to a 4-parameter equation using Kaleidagraph™ software (Synergy Software, Reading, Pa.). Indications of antagonist potency were determined from the IC₅₀ values.

B1
Kd [1]: 30 nM
Ki [2]: < 1 nM

B2
fold lower potency for inhibition of caspase-9 activity relative to XIAP [3]: 300 fold

B3
Ki [4]: 59 nM
Ki [5]: 26 nM
Ki [6]: 54 nM
Ki [7]: 320 nM

AVPW (also called AVPW (Hid)) [AVPW peptide]
IC50 [8]: 150 nM
